Test results: patent US20160271244A1

Molecular target: Env (gp120) of HIV-1 JRCSF.N160K (HIV-1), P20871
Assay: cell-based or functional assay

B1: CH01 (antibody, V domains shown)
VH: EVQLVESGANVVRPGGSLRLSCKASGFIFENFGFSWVRQAPGKGLQWVAGLNWNGGDTRYADSVKGRFRMSRDNSRNFVYLDMDKVGVDDTAFYYCARGTDYTIDDAGIHYQGSGTFWYFDLWGRGTLVSVSS
VL: EIVLTQSPGTLSLSPGERATLSCRASHNVHPKYFAWYQQKPGQSPRLLIYGGSTRAAGIPGKFSGSGSGTDFTLTISRVDPEDFAVYYCQQYGGSPYTFGQGTKVEI
IC50 (virus neutralization): > 50 µg/mL
IC80 (virus neutralization): > 50 µg/mL
